According to patent publication US20240124607A1 (Merck Sharp & Dohme, published 2024):
Positions count from the first letter of the chain named.

Key:
[1] = target: human CD16A (FcγRIIIA) F158 (human, UniProt P08637 17-208, limits assumed, biotinylated); test: SPR, biotin-CD16A on SA chip, 25C, pH 7.4
Protocol: (§1) Binding to human and cynomolgus CD16A was assessed using biotinylated CD16A captured on a streptavidin (SA) sensor chip (Cytiva, #BR100531). AB0411, AB0466, or AB0621 was titrated from 1500 nM at 25° C. at 30 μL/min for 150 sec association followed by 300 sec dissociation. The surface of the chip was regenerated with 2 mM sodium hydroxide for 5 sec at 30 μL/min. Running buffer was HBS-EP+. […] The V158 isoform bound ˜2- to 3-fold tighter than the F158 isoform as expected.

[2] = target: T1, human CD16A (FcγRIIIA) V158 (human, UniProt P08637 17-208, limits assumed, biotinylated in the assay of Table 21); test: SPR, biotin-CD16A on SA chip, 25C, pH 7.4
T1 construct: also called CD16A (V158/V176)
T1 sequence (P08637 17-208 F176V limits assumed): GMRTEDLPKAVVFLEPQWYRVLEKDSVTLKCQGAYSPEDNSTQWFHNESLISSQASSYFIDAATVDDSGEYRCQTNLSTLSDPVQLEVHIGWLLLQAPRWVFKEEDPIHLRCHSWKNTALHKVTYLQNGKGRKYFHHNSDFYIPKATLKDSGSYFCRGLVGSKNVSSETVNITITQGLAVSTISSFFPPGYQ
Protocol: as §1

[3] = target: T2, Cyno FcγRIIIA (cynomolgus monkey, UniProt Q8SPW2 17-208, limits assumed, biotinylated); test: SPR, biotin-CD16A on SA chip, 25C, pH 7.4
T2 construct: also called cynomolgus CD16A
T2 sequence (Q8SPW2 17-208 limits assumed): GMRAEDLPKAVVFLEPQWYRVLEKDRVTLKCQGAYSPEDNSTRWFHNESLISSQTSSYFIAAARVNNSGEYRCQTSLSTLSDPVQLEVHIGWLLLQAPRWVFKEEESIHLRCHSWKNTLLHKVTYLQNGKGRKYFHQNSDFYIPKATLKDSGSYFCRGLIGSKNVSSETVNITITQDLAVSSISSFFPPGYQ
Protocol: as §1

[4] = target: T3, hCEACAM5 A2-B2 domain (human, UniProt P06731 323-500, limits assumed); test: SPR with hCEACAM5 domains
T3 sequence: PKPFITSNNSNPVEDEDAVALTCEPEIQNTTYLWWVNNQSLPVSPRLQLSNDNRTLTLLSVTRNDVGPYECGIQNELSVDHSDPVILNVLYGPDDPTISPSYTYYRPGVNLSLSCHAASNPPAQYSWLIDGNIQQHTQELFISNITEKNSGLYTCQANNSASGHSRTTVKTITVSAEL
Protocol: (§2) If the protein domain was an Fc fusion, AB0411, AB0466, AB0264, or AB0621 were captured using an anti-human Fab antibody (Cytiva, #28958325) immobilized onto a CM5 chip. The various hCEACAM5 protein domains (N-term, A1-B1, A2, B2, A3, or B3) were titrated over the captured TriNKETs at 50 μL/min for 180 sec of association and 300 sec of dissociation. The assay was run at 25° C. in HBS-EP+ running buffer, pH 7.4. The surface of the CM5 chip was regenerated using […] glycine pH 2.1.
(§3) The various hCEACAM5 protein domains were titrated over the captured antibody at 50 μL/min for 180 sec of association and 300 sec of dissociation. The assay was run at 37° C. in HBS-EP+ running buffer, pH 7.4. The surface of the CM5 chip was regenerated using 3M MgCl₂.

[5] = target: T4, hCEACAM5 A3-B3 domain (human, UniProt P06731 501-685, limits assumed); test: SPR with hCEACAM5 domains
T4 sequence: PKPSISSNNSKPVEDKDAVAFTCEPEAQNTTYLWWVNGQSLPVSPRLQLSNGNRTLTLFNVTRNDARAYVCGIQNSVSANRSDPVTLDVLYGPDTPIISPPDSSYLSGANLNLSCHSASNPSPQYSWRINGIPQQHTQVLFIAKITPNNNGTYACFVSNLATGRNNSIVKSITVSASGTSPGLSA
Protocol: as §2, §3

[6] = target: T5, Human CEACAM5 I112V (human, UniProt P06731 35-685, limits assumed); test: SPR, 37C, pH 7.4; reference E398
T5 sequence: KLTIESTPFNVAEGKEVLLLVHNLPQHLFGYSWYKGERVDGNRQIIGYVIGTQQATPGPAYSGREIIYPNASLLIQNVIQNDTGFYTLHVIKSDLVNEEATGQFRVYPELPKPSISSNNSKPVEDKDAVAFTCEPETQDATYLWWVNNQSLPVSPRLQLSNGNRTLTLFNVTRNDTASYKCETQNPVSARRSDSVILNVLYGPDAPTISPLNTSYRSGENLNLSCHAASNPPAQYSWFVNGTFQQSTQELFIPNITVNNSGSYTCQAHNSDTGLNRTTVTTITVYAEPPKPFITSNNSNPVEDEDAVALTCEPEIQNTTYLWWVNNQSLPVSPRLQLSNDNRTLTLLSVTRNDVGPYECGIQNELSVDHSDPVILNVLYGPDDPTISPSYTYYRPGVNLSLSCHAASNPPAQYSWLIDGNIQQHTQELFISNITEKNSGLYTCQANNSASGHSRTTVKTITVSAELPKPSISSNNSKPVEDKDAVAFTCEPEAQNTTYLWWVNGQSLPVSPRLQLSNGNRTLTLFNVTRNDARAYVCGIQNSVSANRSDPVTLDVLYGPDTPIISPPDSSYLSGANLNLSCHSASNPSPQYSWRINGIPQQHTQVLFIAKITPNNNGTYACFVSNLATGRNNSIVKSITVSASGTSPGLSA

[7] = target: T6, Human CEACAM5 I80V V83A I112V I113T (human, UniProt P06731 35-685, limits assumed); test: SPR, 37C, pH 7.4; reference E398
T6 chain: T5 sequence with I46V, V49A, I79T

human CD16A (FcγRIIIA) F158, sequence (P08637 17-208 limits assumed): as the sequence (P08637 17-208 F176V limits assumed) above, with V160F counted along it

Kd [1]: 370 nM
koff [1]: 0.086 s⁻¹
kon [1]: 220000 M⁻¹ s⁻¹
Kd [2]: 120 nM
koff [2]: 0.029 s⁻¹
kon [2]: 230000 M⁻¹ s⁻¹
Kd [3]: 100 nM
koff [3]: 0.075 s⁻¹
kon [3]: 730000 M⁻¹ s⁻¹
binding result [4]: no binding
binding result [5]: no binding
KD/KD(Ref) [6]: 1.2 fold
KD/KD(Ref) [7]: 3.9 fold
B1: AB0411 F3' CEACAM5 TriNKET (bispecific antibody, human IgG1, kappa)
chain: DIQLTQSPATLSVSPGERATLSCRASQSVSSSYLAWYQQKPGQAPRLLIYGASSRATGIPDRFSGSGSGTDFTLTISRLEPEDFAVYYCQQYNNWPLTFGCGTKVEIKGGGGSGGGGSGGGGSGGGGSQVQLVQSGGGLVQPGGSLRLSCAASGFTFTSYAMSWVRQAPGKCLEWVSAISGTGDSTFYADSVKGRFTFSRDNSKNTLYLQMNSLRAEDTAVYYCAKDLGWLQYGLFDYWGQGTLVTVSSGSDKTHTCPPCPAPELLGGPSVFLFPPKPKDTLMISRTPEVTCVVVDVSHEDPEVKFNWYVDGVEVHNAKTKPREEQYNSTYRVVSVLTVLHQDWLNGKEYKCKVSNKALPAPIEKTISKAKGQPREPRVYTLPPCRDELTKNQVSLTCLVKGFYPSDIAVEWESNGQPENNYKTTPPVLVSDGSFTLYSKLTVDKSRWQQGNVFSCSVMHEALHNHYTQKSLSLSPG
heavy: EVQLVESGGGLVKPGGSLRLSCAASGFTFSSYSMNWVRQAPGKGLEWVSSISSSSSYIYYADSVKGRFTISRDNAKNSLYLQMNSLRAEDTAVYYCARGAPIGAAAGWFDPWGQGTLVTVSSASTKGPSVFPLAPSSKSTSGGTAALGCLVKDYFPEPVTVSWNSGALTSGVHTFPAVLQSSGLYSLSSVVTVPSSSLGTQTYICNVNHKPSNTKVDKKVEPKSCDKTHTCPPCPAPELLGGPSVFLFPPKPKDTLMISRTPEVTCVVVDVSHEDPEVKFNWYVDGVEVHNAKTKPREEQYNSTYRVVSVLTVLHQDWLNGKEYKCKVSNKALPAPIEKTISKAKGQPREPQVCTLPPSRDELTENQVSLTCLVKGFYPSDIAVEWESNGQPENNYKTTPPVLDSDGSFFLYSWLTVDKSRWQQGNVFSCSVMHEALHNHYTQKSLSLSPG
light: DIQMTQSPSSVSASVGDRVTITCRASQGISSWLAWYQQKPGKAPKLLIYAASSLQSGVPSRFSGSGSGTDFTLTISSLQPEDFATYYCQQGVSFPRTFGGGTKVEIKRTVAAPSVFIFPPSDEQLKSGTASVVCLLNNFYPREAKVQWKVDNALQSGNSQESVTEQDSKDSTYSLSSTLTLSKADYEKHKVYACEVTHQGLSSPVTKSFNRGEC
